Laboratory results taken from PMC2756588.

T1: Bud14, P27637
T1 sequence (P27637 247-328, looked up): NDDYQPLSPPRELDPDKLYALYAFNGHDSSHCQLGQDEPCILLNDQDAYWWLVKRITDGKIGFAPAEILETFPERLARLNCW

T2: Hse1, P38753
T2 sequence (P38753 208-285, looked up): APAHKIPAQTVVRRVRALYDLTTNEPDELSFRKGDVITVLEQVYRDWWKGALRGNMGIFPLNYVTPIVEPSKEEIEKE

T3: Fus1, P11710
T3 sequence (P11710 432-512, looked up): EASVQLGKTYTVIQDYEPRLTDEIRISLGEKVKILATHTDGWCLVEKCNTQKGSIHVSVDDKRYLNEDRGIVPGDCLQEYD

T4: Hof1, Q05080
T4 sequence (Q05080 590-669, looked up): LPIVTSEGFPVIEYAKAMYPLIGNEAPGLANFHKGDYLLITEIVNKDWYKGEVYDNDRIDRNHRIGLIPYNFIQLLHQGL

T5: Lsb1, P53281
T5 sequence (P53281 45-122, looked up): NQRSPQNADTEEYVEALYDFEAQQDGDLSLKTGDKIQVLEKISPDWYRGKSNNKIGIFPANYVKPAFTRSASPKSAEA

T6: Nbp2, Q12163
T6 sequence (Q12163 103-180, looked up): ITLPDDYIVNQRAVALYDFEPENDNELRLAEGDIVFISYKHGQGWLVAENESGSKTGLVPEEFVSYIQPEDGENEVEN

T7: Pex13, P80667
T7 sequence (P80667 295-386, looked up): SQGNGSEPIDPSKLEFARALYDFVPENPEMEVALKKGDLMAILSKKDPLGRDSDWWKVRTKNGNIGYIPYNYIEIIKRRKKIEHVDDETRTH

T8: Cdc25, P04821
T8 sequence (P04821 50-136, looked up): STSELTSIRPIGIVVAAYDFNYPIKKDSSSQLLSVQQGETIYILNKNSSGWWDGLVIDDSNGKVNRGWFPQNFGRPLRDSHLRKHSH

T9: Bzz1-2, P38822
T9 sequence (P38822 568-633, looked up): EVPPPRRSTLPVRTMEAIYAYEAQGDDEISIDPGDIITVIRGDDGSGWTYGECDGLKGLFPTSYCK

T10: Sla1-2, P32790
T10 sequence (P32790 60-140, looked up): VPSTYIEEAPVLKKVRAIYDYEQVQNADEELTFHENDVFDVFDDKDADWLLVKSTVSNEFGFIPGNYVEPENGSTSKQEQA

T11: Lsb3, P43603
T11 sequence (P43603 385-451, looked up): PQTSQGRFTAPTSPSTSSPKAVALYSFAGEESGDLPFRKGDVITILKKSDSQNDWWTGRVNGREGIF

T12: Myo5, Q04439
T12 sequence (Q04439 1072-1160, looked up): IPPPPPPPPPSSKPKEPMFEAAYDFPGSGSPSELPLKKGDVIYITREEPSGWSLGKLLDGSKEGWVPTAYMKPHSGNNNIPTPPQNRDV

T13: Cyk3, Q07533
T13 sequence (Q07533 1-83, looked up): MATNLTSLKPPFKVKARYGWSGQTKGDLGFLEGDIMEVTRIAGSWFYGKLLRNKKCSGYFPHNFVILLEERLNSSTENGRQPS

T14: Bbc1, P47068
T14 sequence (P47068 1-78, looked up): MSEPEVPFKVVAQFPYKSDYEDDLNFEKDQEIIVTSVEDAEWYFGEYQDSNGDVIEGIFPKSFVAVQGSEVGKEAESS

T15: Sla1-3, P32790
T15 sequence (P32790 344-424, looked up): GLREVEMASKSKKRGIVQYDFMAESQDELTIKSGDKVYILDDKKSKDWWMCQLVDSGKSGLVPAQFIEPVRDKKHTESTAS

T16: Boi2, P39969
T16 sequence (P39969 32-116, looked up): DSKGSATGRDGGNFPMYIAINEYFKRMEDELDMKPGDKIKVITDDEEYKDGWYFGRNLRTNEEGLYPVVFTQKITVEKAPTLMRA

T17: Boi1, P38041
T17 sequence (P38041 1-86, looked up): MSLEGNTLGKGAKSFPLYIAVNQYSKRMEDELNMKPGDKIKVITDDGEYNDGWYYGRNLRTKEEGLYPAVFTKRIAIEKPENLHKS

T18: Abp1, P15891
T18 sequence (P15891 535-592, looked up): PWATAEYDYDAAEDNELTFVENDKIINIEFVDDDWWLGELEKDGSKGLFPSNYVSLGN

T19: Lsb4, P32793
T19 sequence (P32793 402-468, looked up): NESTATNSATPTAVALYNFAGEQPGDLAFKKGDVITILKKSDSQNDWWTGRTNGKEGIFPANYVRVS

T20: Pin3, Q06449
T20 sequence (Q06449 53-122, looked up): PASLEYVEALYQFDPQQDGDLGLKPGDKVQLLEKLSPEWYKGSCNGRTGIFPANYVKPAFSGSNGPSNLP

T21: Bzz1-1, P38822
T21 sequence (P38822 478-572, looked up): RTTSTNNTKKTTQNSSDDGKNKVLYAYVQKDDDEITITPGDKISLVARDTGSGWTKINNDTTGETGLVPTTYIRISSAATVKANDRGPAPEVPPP


Target: T1, Bud14, P27637
Experiment: SPOT array
Details: median of control spots 956

Row | SPOT intensity | Binder
1 | 3 | RRRIAYPFYPFKKLG
2 | 3 | VNFRRIPTGPDSPPT
3 | 41 | RRARRQMGIPTISQV

Target: Rvs167, P39743
Sequence (P39743 419-482): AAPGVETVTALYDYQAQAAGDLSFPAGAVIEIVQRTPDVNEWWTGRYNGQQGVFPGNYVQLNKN
Experiment: SPOT array
Details: median of control spots 2707

Row | SPOT intensity | Binder
4 | 0 | RRRIAYPFYPFKKLG
5 | 2 | VNFRRIPTGPDSPPT
6 | 2 | RRARRQMGIPTISQV

Target: T2, Hse1, P38753
Experiment: SPOT array
Details: median of control spots 1727

Row | SPOT intensity | Binder
7 | 13 | RRRIAYPFYPFKKLG
8 | 4 | VNFRRIPTGPDSPPT
9 | 11 | RRARRQMGIPTISQV

Target: GST
Experiment: SPOT array
Details: median of control spots 978

Row | SPOT intensity | Binder
10 | 2 | RRRIAYPFYPFKKLG
11 | 0 | VNFRRIPTGPDSPPT
12 | 7 | RRARRQMGIPTISQV

Target: T3, Fus1, P11710
Experiment: SPOT array
Details: median of control spots 1200

Row | SPOT intensity | Binder
13 | 14 | RRRIAYPFYPFKKLG
14 | 0 | VNFRRIPTGPDSPPT
15 | 1 | RRARRQMGIPTISQV

Target: T4, Hof1, Q05080
Experiment: SPOT array
Details: median of control spots 4086

Row | SPOT intensity | Binder
16 | 8 | RRRIAYPFYPFKKLG
17 | 3 | VNFRRIPTGPDSPPT
18 | 3 | RRARRQMGIPTISQV

Target: T5, Lsb1, P53281
Experiment: SPOT array
Details: median of control spots 388

Row | SPOT intensity | Binder
19 | 4 | RRRIAYPFYPFKKLG
20 | 0 | VNFRRIPTGPDSPPT
21 | 35 | RRARRQMGIPTISQV

Target: Myo3, P36006
Experiment: SPOT array
Details: median of control spots 468

Row | SPOT intensity | Binder
22 | 2 | RRRIAYPFYPFKKLG
23 | 0 | VNFRRIPTGPDSPPT
24 | 10 | RRARRQMGIPTISQV

Target: T6, Nbp2, Q12163
Experiment: SPOT array
Details: median of control spots 357

Row | SPOT intensity | Binder
25 | 21 | RRRIAYPFYPFKKLG
26 | 0 | VNFRRIPTGPDSPPT
27 | 2 | RRARRQMGIPTISQV

Target: T7, Pex13, P80667
Experiment: SPOT array
Details: median of control spots 1341

Row | SPOT intensity | Binder
28 | 5 | RRRIAYPFYPFKKLG
29 | 6 | VNFRRIPTGPDSPPT
30 | 19 | RRARRQMGIPTISQV

Target: Bem1-2, P29366
Sequence (P29366 139-227): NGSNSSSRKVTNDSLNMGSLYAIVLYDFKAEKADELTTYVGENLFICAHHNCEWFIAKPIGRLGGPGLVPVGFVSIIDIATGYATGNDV
Experiment: SPOT array
Details: median of control spots 4347

Row | SPOT intensity | Binder
31 | 3 | RRRIAYPFYPFKKLG
32 | 0 | VNFRRIPTGPDSPPT
33 | 12 | RRARRQMGIPTISQV

Target: T8, Cdc25, P04821
Experiment: SPOT array
Details: median of control spots 969

Row | SPOT intensity | Binder
34 | 85 | RRRIAYPFYPFKKLG
35 | 0 | VNFRRIPTGPDSPPT
36 | 120 | RRARRQMGIPTISQV

Target: T9, Bzz1-2, P38822
Experiment: SPOT array
Details: median of control spots 4538

Row | SPOT intensity | Binder
37 | 6 | RRRIAYPFYPFKKLG
38 | 3 | VNFRRIPTGPDSPPT
39 | 25 | RRARRQMGIPTISQV

Target: T10, Sla1-2, P32790
Experiment: SPOT array
Details: median of control spots 712

Row | SPOT intensity | Binder
40 | 0 | RRRIAYPFYPFKKLG
41 | 0 | VNFRRIPTGPDSPPT
42 | 15 | RRARRQMGIPTISQV

Target: T11, Lsb3, P43603
Experiment: SPOT array
Details: median of control spots 406

Row | SPOT intensity | Binder
43 | 0 | RRRIAYPFYPFKKLG
44 | 2 | VNFRRIPTGPDSPPT
45 | 6 | RRARRQMGIPTISQV

Target: T12, Myo5, Q04439
Experiment: SPOT array
Details: median of control spots 471

Row | SPOT intensity | Binder
46 | 0 | RRRIAYPFYPFKKLG
47 | 0 | VNFRRIPTGPDSPPT
48 | 20 | RRARRQMGIPTISQV

Target: Sho1, P40073
Sequence (P40073 287-367): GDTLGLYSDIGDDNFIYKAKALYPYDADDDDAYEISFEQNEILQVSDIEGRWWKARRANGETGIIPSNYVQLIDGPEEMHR
Experiment: SPOT array
Details: median of control spots 1148

Row | SPOT intensity | Binder
49 | 25 | RRRIAYPFYPFKKLG
50 | 19 | VNFRRIPTGPDSPPT
51 | 79 | RRARRQMGIPTISQV

Target: T13, Cyk3, Q07533
Experiment: SPOT array
Details: median of control spots 1451

Row | SPOT intensity | Binder
52 | 1 | RRRIAYPFYPFKKLG
53 | 0 | VNFRRIPTGPDSPPT
54 | 2 | RRARRQMGIPTISQV

Target: T14, Bbc1, P47068
Experiment: SPOT array
Details: median of control spots 796

Row | SPOT intensity | Binder
55 | 133 | RRRIAYPFYPFKKLG
56 | 2 | VNFRRIPTGPDSPPT
57 | 58 | RRARRQMGIPTISQV

Target: T15, Sla1-3, P32790
Experiment: SPOT array
Details: median of control spots 5475

Row | SPOT intensity | Binder
58 | 21 | RRRIAYPFYPFKKLG
59 | 17 | VNFRRIPTGPDSPPT
60 | 14 | RRARRQMGIPTISQV

Target: T16, Boi2, P39969
Experiment: SPOT array
Details: median of control spots 1161

Row | SPOT intensity | Binder
61 | 0 | RRRIAYPFYPFKKLG
62 | 0 | VNFRRIPTGPDSPPT
63 | 1 | RRARRQMGIPTISQV

Target: T17, Boi1, P38041
Experiment: SPOT array
Details: median of control spots 1162

Row | SPOT intensity | Binder
64 | 2 | RRRIAYPFYPFKKLG
65 | 0 | VNFRRIPTGPDSPPT
66 | 3 | RRARRQMGIPTISQV

Target: T18, Abp1, P15891
Experiment: SPOT array
Details: median of control spots 935

Row | SPOT intensity | Binder
67 | 36 | RRRIAYPFYPFKKLG
68 | 5 | VNFRRIPTGPDSPPT
69 | 95 | RRARRQMGIPTISQV

Target: T19, Lsb4, P32793
Experiment: SPOT array
Details: median of control spots 397

Row | SPOT intensity | Binder
70 | 0 | RRRIAYPFYPFKKLG
71 | 2 | VNFRRIPTGPDSPPT
72 | 16 | RRARRQMGIPTISQV

Target: Bem1-1, P29366
Sequence (P29366 55-141): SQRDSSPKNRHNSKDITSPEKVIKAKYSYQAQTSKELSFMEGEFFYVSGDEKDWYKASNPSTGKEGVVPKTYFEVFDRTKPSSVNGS
Experiment: SPOT array
Details: median of control spots 4282

Row | SPOT intensity | Binder
73 | 1 | RRRIAYPFYPFKKLG
74 | 0 | VNFRRIPTGPDSPPT
75 | 3 | RRARRQMGIPTISQV

Target: T20, Pin3, Q06449
Experiment: SPOT array
Details: median of control spots 2171

Row | SPOT intensity | Binder
76 | 0 | RRRIAYPFYPFKKLG
77 | 0 | VNFRRIPTGPDSPPT
78 | 33 | RRARRQMGIPTISQV

Target: T21, Bzz1-1, P38822
Experiment: SPOT array
Details: median of control spots 4446

Row | SPOT intensity | Binder
79 | 0 | RRRIAYPFYPFKKLG
80 | 0 | VNFRRIPTGPDSPPT
81 | 2 | RRARRQMGIPTISQV
